Test results: IntAct's records for PubMed 26030876

B1: Autophagy-related protein 101 (Homo sapiens), Q9BSB4 (parent)
chain: MNCRSEVLEVSVEGRQVEEAMLAVLHTVLLHRSTGKFHYKKEGTYSIGTVGTQDVDCDFIDFTYVRVSSEELDRALRKVVGEFKDALRNSGGDGLGQMSLEFYQKKKSRWPFSDECIPWEVWTVKVHVVALATEQERQICREKVGEKLCEKIINIVEVMNRHEYLPKMPTQSEVDNVFDTGLRDVQPYLYKISFQITDALGTSVTTTMRRLIKDTLAL
partner: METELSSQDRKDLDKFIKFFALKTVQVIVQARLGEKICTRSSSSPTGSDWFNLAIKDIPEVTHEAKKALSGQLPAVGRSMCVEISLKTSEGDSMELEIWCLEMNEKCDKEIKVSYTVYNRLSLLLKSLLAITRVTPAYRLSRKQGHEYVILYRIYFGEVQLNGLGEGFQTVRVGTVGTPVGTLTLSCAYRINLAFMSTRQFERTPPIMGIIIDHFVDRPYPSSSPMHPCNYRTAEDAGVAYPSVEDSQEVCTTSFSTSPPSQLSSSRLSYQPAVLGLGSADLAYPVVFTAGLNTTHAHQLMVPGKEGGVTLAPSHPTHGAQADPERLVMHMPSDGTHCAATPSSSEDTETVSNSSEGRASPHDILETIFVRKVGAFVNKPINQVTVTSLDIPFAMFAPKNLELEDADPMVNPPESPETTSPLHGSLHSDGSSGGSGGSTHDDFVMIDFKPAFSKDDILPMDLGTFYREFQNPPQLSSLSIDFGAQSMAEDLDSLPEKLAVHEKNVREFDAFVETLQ

Variants of: B1
Conditions: with atg13_mouse Atg13, Q91YI1
MNCRSEVLEVSVEGRQVEEAMLAVLHTVLRRRSTGKFHYKKEGTYSIGTVGTQDVDCDFIDFTYVRVSSEELDRALRKVVGEFKDALRNSGGDGLGQMSLEFYQKKKSRWPFSDECIPWEVWTVKVHVVALATEQERQICREKVGEKLCEKIINIVEVMNRHEYLPKMPTQSEVDNVFDTGLRDVQPYLYKISFQITDALGTSVTTTMRRLIKDTLAL [L30R;H31R] was tested, and the “effect of a mutation on the interaction” value was “disrupting interaction strength”. In the case of MNCRSEVLEVSVEGRQVEEAMLAVLHTVLLHRSTGKFHYKKEGTYSIGTVGTQDVDCDFIDFRYVRVSSEELDRALRKVVGEFKDALRNSGGDGLGQMSLEFYQKKKSRWPFSDECIPWEVWTVKVHVVALATEQERQICREKVGEKLCEKIINIVEVMNRHEYLPKMPTQSEVDNVFDTGLRDVQPYLYKISFQITDALGTSVTTTMRRLIKDTLAL [T63R], the “effect of a mutation on the interaction” value is reported as “decreasing interaction strength”.
